Laboratory results from patent US20140087995A1 (published 2014).
Numbered stars: 1 amine (or outer) side, 2 acyl side, 3 side chain; on linkers, the order of the positions; unused ones are H or OH. Bridge positions count the residues as written; N and C are the ends. Side chains are listed from the residue outwards. Ends that are not written are not given here. * marks the point of attachment. C20 diacid = O=C(O)CCCCCCCCCCCCCCCCCCC(=O)*; C18 diacid = O=C(O)CCCCCCCCCCCCCCCCC(=O)*; C16 diacid = O=C(O)CCCCCCCCCCCCCCC(=O)*; γGlu = O=C(O)[C@H](CCC(=O)[*:2])N[*:1]; C14 diacid = O=C(O)CCCCCCCCCCCCC(=O)*; AEEA = NCCOCCOCC(=O)O

Target: T1, human calcitonin receptor (human, UniProt P30988 25-474)
T1 sequence (looked up): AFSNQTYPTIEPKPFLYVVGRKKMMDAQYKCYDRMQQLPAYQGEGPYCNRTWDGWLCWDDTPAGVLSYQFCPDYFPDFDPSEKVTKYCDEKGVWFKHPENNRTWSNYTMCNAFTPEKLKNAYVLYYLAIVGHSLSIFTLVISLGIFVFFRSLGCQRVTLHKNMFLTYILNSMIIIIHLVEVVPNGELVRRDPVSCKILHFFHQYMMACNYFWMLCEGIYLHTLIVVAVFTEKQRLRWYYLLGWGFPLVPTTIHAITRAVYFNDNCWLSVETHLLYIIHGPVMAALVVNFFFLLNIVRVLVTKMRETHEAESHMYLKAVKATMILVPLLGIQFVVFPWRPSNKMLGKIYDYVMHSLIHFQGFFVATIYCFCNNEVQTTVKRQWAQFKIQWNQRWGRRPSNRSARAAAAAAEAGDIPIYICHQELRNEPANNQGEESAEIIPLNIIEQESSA
Assay: cell-based or functional assay

Binder	Ratio hCT/hAmylin funct.
K([γGlu-C18 diacid])CNTATCATQRLANFLRHSSPNFGAIPSSTNVGHNTY-NH2 (disulfide 2-7 (inferred)) [N^ε1-[(4S)-4-carboxy-4-(17-carboxyheptadecanoylamino)butanoyl]-[Arg17,Pro21,Pro27,His34]-h-amylin]	60.9
K([AEEA-AEEA-γGlu-C20 diacid])CNTATCATQRLANFLRHSSPNFGAIPSSTNVGRNTY-NH2 (disulfide 2-7 (inferred), also called compound 95)	33
K([γGlu-C20 diacid])CNTATCATQRLAEFLRHSSPNFGAIPSSTNVGPRTY-NH2 (disulfide 2-7 (inferred))	17
K([γGlu-C16 diacid])CNTATCATQRLANFLRHSSPNFGAIPSSTNVGHNTY-NH2 (disulfide 2-7 (inferred)) [N^ε1-[(4S)-4-carboxy-4-(15-carboxypentadecanoylamino)butanoyl]-[Arg17,Pro21,Pro27,His34]-h-amylin]	65.1
K([γGlu-C14 diacid])CNTATCATQRLANFLRHSSPNFGAIPSSTNVGHNTY-NH2 (disulfide 2-7 (inferred)) [N^ε1-[(4S)-4-carboxy-4-(13-carboxytridecanoylamino)butanoyl]-[Arg17,Pro21,Pro27,His34]-h-amylin]	38.8
K([γGlu-γGlu-C20 diacid])CNTATCATQRLADFLRHSSPNFGAIPSSTNVGPRTY-NH2 (disulfide 2-7 (inferred), also called compound 130)	44.9
K([AEEA-AEEA-γGlu-C20 diacid])CNTATCATQRLANFLRHSSPNFGAIPSSTNVGHNTY-NH2 (disulfide 2-7 (inferred), also called compound 97)	33
K([γGlu-γGlu-C20 diacid])CNTATCATQRLAEFLRHSSPNFGAIPSSTNVGPHTY-NH2 (disulfide 2-7 (inferred))	16.4
K([γGlu-γGlu-C20 diacid])CNTATCATQRLAHFLRHSSPNFGAIPSSTNVGSNTY-NH2 (disulfide 2-7 (inferred), also called compound 92)	28
K([γGlu-γGlu-C20 diacid])CNTATCATQRLAEFLRHSSNNPGAILSSTNVGPETY-NH2 (disulfide 2-7 (inferred))	17.3
